From US20150329642A1 (Genmab, published 2015)
Numbering of substitutions follows the chain as printed.

What was measured:
[1] = target: T1, recombinant human c-Met extracellular domain (R&D systems) (human, UniProt P08581 25-932); experiment: competition ELISA on coated recombinant c-Met extracellular domain; blocked ligand Europium-conjugated HGF; column headed EC50 on the sheet, called IC50 in paragraph 270; upper panel
T1 construct: extracellular domain; Bought reagent; also called coated extracellular domain of c-Met; recombinant c-Met
Experimental: (§1) ELISA wells were coated overnight at 4° C. with 0.5 μg/mL recombinant human c-Met extracellular domain (R&D systems, Minneapolis, USA) diluted in PBS. Next, the ELISA wells were washed with PBST (PBS supplemented with 0.05% Tween-20 [Sigma-Aldrich, Zwijndrecht, The Netherlands]) and blocked for one hour at room temperature (RT) with PBST supplemented with 2% (v/v) chicken serum (Gibco, Paisley, Scotland). […] Mean fluorescence intensity at 615 nm was measured using the EnVision 2101 Multilabel reader (PerkinElmer) applying the following settings: Lance/Delfia dual mirror, emission filter 615, excitation filter 340 nm, delay time 400 μs, window 400 μs, 100 flashes, 2000 μs per cycle and bidirectional row-by-row reading. To determine IC₅₀ values, the binding curves were analyzed with non-linear regression (sigmoidal dose-response with variable slope, top-values constrained to a shared value for all data-sets) using GraphPad Prism V4.03 software (GraphPad Software, San Diego, Calif., USA).
(§2) FIG. 5 depicts representative examples of HGF binding inhibition curves of anti-c-Met antibodies for binding to the extracellular domain of recombinant human c-Met. 5D5 was used as positive control antibody. All anti-c-Met antibodies in the experiment shown were able to compete with Europium^{3±}-conjugated HGF for binding to recombinant c-Met. […] Without adding Europium³⁺-conjugated HGF, roughly ˜600 relative fluorescent units (RFU) were detected, indicating the signal when maximal inhibition is accomplished. When binding of Europium³⁺-conjugated HGF was not inhibited, approximately ˜66,000 RFU were detected.

[2] = target: T2, cMetECDHis (human, UniProt P08581 25-932, limits assumed, biotinylated in the cross-block ELISA of Example 17); experiment: cross-block ELISA; competitor G11-HZ
T2 construct: Expressed in HEK-293F cells; also called soluble cMetECDHis; biotinylated cMetECDHis
Experimental: First, the optimal coating concentrations of the tested anti-c-Met antibodies and the optimal cMetECDHis concentration were determined. Therefore, ELISA wells were coated overnight at 4° C. with anti-c-Met HuMabs serially diluted in PBS (8 μg/mL in 2-fold dilutions). Next, the ELISA wells were washed with PBST (PBS supplemented with 0.05% Tween-20 [Sigma-Aldrich, Zwijndrecht, The Netherlands]) and blocked for one hour at room temperature (RT) with PBSTC (PBST supplemented 2% [v/v] chicken serum [Gibco, Paisley, Scotland]). Subsequently, the ELISA wells were washed with PBST and incubated for one hour at RT with biotinylated cMetECDHis serially diluted in PBSTC (1 μg/mL in 2-fold dilutions). Unbound biotinylated cMetECDHis was washed away with PBST, and bound biotinylated cMetECDHis was incubated for one hour at RT with 0.1 μg/mL Streptavidin-poly-HRP (Sanquin, Amsterdam, The Netherlands) diluted in PBST.
ELISA wells were coated with anti-c-Met antibody at a sub-optimal dose as described above. After blocking of the ELISA wells, they were incubated with the predetermined concentration of biotinylated cMetECDHis in the presence of an excess of anti-c-Met antibody. The reaction was developed as described above. Residual binding was expressed as a percentage relative to the binding observed in the absence of competitor antibody.

[3] = target: T1, recombinant human c-Met extracellular …; experiment: competition ELISA, residual Europium-HGF signal at 615 nm at the lower plateau of the fit; sheet prints no competing mAb ~66000, no HGF-Europium ~600; upper panel
Experimental: as §1, §2

[4] = target: T3, human c-Met, membrane-bound on cells (human, UniProt P08581 25-1390); experiment: flow cytometry on A431 cells (PE goat anti-human IgG); second panel
T3 construct: whole, on cells; A431 cells carry on average 30,000 copies of c-Met per cell (Qifi); also called c-Met expressed on A431 cells; c-Met on A549 cells
Method in brief: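 Antibodies and monovalent UniBody forms were bound to A431 cells expressing membrane-bound c-Met. Binding was detected by flow cytometry with PE-conjugated goat anti-human IgG. EC₅₀ values came from non-linear regression (sigmoidal dose-response, variable slope).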

[5] = target: T4, cMetSEMA-567His8 (human, UniProt P08581 25-567, limits assumed); experiment: TR-FRET; displacement of AlexaFluor-647-HGF from cMetSEMA-567His8
T4 construct: In the TR-FRET assay detected by anti-6xhis Europium3+; also called cMetSEMAHis; SEMA domain of c-Met; not shown: C-terminal His tag; the text says His9, the construct name says His8
Experimental: Therefore, the interaction of anti-c-Met antibodies with the SEMA domain of the c-Met receptor was studied using TR-FRET technology. […] The mean fluorescent intensity at 665 nm was measured on the EnVision 2101 Multilabel reader (PerkinElmer).
A 4-fold serial dilution of unlabeled anti-c-Met antibody ranging from 0.49-8000 ng/mL was tested. After overnight incubation at 4° C. in the dark, mean fluorescence intensity at 665 nm was measured using the EnVision 2101 Multilabel reader applying the following settings: Lance/Delfia dual mirror, emission filter 615-665 nm, excitation filter 320 nm, delay time 60 μs, window 100 μs, 100 flashes, 2000 μs per cycle and bidirectional row-by-row reading. To determine IC₅₀ values, the binding curves were analyzed with non-linear regression (sigmoidal dose-response with variable slope) using GraphPad Prism V4.03 software (GraphPad Software, San Diego, Calif., USA).

B1: anti-c-Met HuMab 006 (IgG1) (antibody, V domains shown)
VH: QVQLVQSGAEVKKPGSSVKVSCKASGGTFSSFGIGWVRQAPGQGLEWMGRIFPILGTANYAQMFQGRVTITADKSTSTAYMELTSLRSEDTAVYYCARDVGYDSADAFDIWGQGTMVTVSS
VL: DIQMTQSPSSLSASVGDRVTITCRASQGISSWLAWYQQKPEKAPKSLIYAASSLQSGVPSRFSGSGSGTDFTLTISSLQPEDFATYYCQQYNSYPPTFGQGTKVEIK
notes: also called TH1016-006; PC1016-006
Question: B1 was tested. Which IC50 [1] did it give?
Answer: Its IC50 is 0.0799 µg/mL.

Question: And the “residual binding, % of no competitor” value [2]?
Answer: The value was 54%.

Question: What about the Bottom [3] of the same binder?
Answer: Its Bottom is 5630 RFU.

Question: And the EC50 [4]?
Answer: Its EC50 is 1.92 nM.

Question: What about the “% inhibition” value [5] of the same binder?
Answer: Its value is 92%.

Question: And the IC50 [5]?
Answer: The IC50 was 0.16 µg/mL.

B2: IgG1-1016-022 (antibody, V domains shown)
VH: QVQLVESGGGVVQPGRSLRLSCAASGFTFSSYAMHWVRQAPGKGLEWVAVISYDGSNKYYADSVKGRFTISRDNSKNTLYLQMNSLRAEDTAVYYCARELLWFGELWGYFDLWGRGTLVTVSS
VL: B1 VL with L11V, Q38H, E41G, S46L, Q90E, Y91A, N92S, Y94F, P95T, P96W
notes: also called TH1016-022; PC1016-022
Question: Which IC50 [1] does the source give for B2 here?
Answer: The IC50 was 0.00927 µg/mL.

Question: What about the “residual binding, % of no competitor” value [2] of the same binder?
Answer: Its value is 85.9%.

Question: What about the Bottom [3] of the same binder?
Answer: The Bottom was 18200 RFU.

Question: And the EC50 [4]?
Answer: The EC50 was 1.1 nM.

Question: And the “% inhibition” value [5]?
Answer: Its value is 77%.

Question: What about the IC50 [5] of the same binder?
Answer: Its IC50 is 0.37 µg/mL.
